Experimental data: article doi:10.1101/2024.01.10.575067

Target: tetra-Cys human GAPDH (TC-hGAPDH), bacterially expressed and purified (human) (UniProt P04406)
Test: SEC

tetra-Cys human GAPDH (TC-hGAPDH), bacterially expressed and purified (from UniProt P04406 1-335) (enzyme)
stoichiometry N: 4
